Data reported in publication PMC11674972.
Several values for one entry are separate records, joined by “and”; a condition that tells them apart may be missing. Equal entries are not always repeated.

Experiments:
[1] = molecular target: FcγRI (Biotinylated Human CD64 Protein, His, Avitag) (human) (UniProt P12314); test: SPR; Biacore T200; biotinylated FcγRI immobilised on streptavidin chip SA; AVT 1.875-30 nM; 1x HBS-EP pH 7.4, 22 °C; double referenced; steady-state affinity algorithm
[2] = molecular target: FcγRI (Biotinylated Human CD64 Protein, His, Avitag) (human) (UniProt P12314); test: SPR; Biacore T200; biotinylated FcγRI immobilised on streptavidin chip SA; AVT 1.875-30 nM; 1x HBS-EP pH 7.4, 22 °C; 1:1 Langmuir binding model (fit poorer than the heterogeneous ligand model)
[3] = molecular target: FcγRI (Biotinylated Human CD64 Protein, His, Avitag) (human) (UniProt P12314); test: SPR; Biacore T200; biotinylated FcγRI immobilised on streptavidin chip SA (target 200 RU); AVT 1.875-30 nM injected 60 s at 50 uL/min; 1x HBS-EP pH 7.4, 22 °C; double referenced; heterogeneous ligand kinetics model

Chain of UniProt P12314 (P12314 16-292): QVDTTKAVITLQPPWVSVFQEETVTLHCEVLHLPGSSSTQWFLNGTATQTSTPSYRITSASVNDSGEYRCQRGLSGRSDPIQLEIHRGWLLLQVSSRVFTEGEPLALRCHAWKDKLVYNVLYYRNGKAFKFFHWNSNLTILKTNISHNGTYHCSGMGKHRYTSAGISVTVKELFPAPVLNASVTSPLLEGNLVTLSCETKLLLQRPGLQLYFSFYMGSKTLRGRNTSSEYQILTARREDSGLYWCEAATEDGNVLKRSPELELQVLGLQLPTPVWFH

Kd [1]: 13500 pM
Kd [2]: 420 pM
KD, set 1 (heterogeneous ligand model) [3]: 2.67 pM and 1.55 pM and 2.59 pM
KD, set 1 (heterogeneous ligand model), mean [3]: 2.27 pM
ka, set 1 (heterogeneous ligand model) [3]: 333000 M⁻¹ s⁻¹ and 276000 M⁻¹ s⁻¹ and 335000 M⁻¹ s⁻¹
ka, set 1 (heterogeneous ligand model), mean [3]: 315000 M⁻¹ s⁻¹
kd, set 1 (heterogeneous ligand model) [3]: 8.9e-07 s⁻¹ and 4.27e-07 s⁻¹ and 8.67e-07 s⁻¹
kd, set 1 (heterogeneous ligand model), mean [3]: 7.28e-07 s⁻¹
Substance: Bevacizumab (Avastin) (antibody)
